Reference: paper PMC6910952 (Nature Communications, 2019)
Numbering of substitutions follows the chain as printed.

Key:
Test in all cases: pull-down; GST-yNpl4 (0.5 μM, wild type or mutant) on Glutathione Sepharose 4B beads, 1 h at room temperature with 0.5 μM yUfd1, 3 μM Cdc48 (0.5 μM hexamer) and 1 μg K48 chains in 100 μL 50 mM Tris-HCl pH 7.5, 100 mM NaCl, 10% glycerol, 0.1% Triton X-100; chains detected by anti-Ub immunoblot, proteins by Ponceau S
Details in all cases: both partners purified
[1] = biological target: T1, GST-yNpl4 M574A (Saccharomyces cerevisiae, UniProt P33755 1-580, M574A)
T1 construct: Npl4 of Saccharomyces cerevisiae (yNpl4), full length; source: E. coli Rosetta (DE3) (pGEX-6P1), purified (Glutathione Sepharose FF, Resource Q); not shown: GST, N-terminal, kept
T1 sequence (looked up): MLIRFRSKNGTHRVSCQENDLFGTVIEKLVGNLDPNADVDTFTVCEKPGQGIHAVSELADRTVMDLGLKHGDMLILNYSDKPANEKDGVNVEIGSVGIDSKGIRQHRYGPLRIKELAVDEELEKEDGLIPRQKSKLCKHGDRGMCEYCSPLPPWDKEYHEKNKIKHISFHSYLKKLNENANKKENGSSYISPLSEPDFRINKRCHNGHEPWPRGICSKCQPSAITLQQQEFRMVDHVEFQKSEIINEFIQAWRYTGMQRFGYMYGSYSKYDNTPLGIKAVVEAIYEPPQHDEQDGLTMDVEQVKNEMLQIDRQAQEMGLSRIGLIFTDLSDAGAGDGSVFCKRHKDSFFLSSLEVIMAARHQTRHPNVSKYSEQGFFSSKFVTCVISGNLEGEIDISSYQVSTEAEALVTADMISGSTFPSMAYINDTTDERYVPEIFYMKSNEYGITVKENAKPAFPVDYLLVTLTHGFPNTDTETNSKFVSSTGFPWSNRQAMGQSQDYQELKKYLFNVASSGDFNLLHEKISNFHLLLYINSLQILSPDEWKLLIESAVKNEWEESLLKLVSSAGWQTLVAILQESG

[2] = biological target: T2, GST-yNpl4 S498R (Saccharomyces cerevisiae, UniProt P33755 1-580, S498R)
T2 construct: Npl4 of Saccharomyces cerevisiae (yNpl4), full length; source: E. coli Rosetta (DE3) (pGEX-6P1), purified (Glutathione Sepharose FF, Resource Q); not shown: GST, N-terminal, kept
T2 sequence (looked up): T1 sequence (looked up) with S498R, A574M

[3] = biological target: T3, GST-yNpl4 I575A (Saccharomyces cerevisiae, UniProt P33755 1-580, I575A)
T3 construct: Npl4 of Saccharomyces cerevisiae (yNpl4), full length; source: E. coli Rosetta (DE3) (pGEX-6P1), purified (Glutathione Sepharose FF, Resource Q); not shown: GST, N-terminal, kept
T3 sequence (looked up): T1 sequence (looked up) with A574M, I575A

Measured: binding result

B1: yUfd1 (full length, untagged) (natural protein, Saccharomyces cerevisiae, UniProt P53044 1-361, looked up)
chain: MFSGFSSFGGGNGFVNMPQTFEEFFRCYPIAMMNDRIRKDDANFGGKIFLPPSALSKLSMLNIRYPMLFKLTANETGRVTHGGVLEFIAEEGRVYLPQWMMETLGIQPGSLLQISSTDVPLGQFVKLEPQSVDFLDISDPKAVLENVLRNFSTLTVDDVIEISYNGKTFKIKILEVKPESSSKSICVIETDLVTDFAPPVGYVEPDYKALKAQQDKEKKNSFGKGQVLDPSVLGQGSMSTRIDYAGIANSSRNKLSKFVGQGQNISGKAPKAEPKQDIKDMKITFDGEPAKLDLPEGQLFFGFPMVLPKEDEESAAGSKSSEQNFQGQGISLRKSNKRKTKSDHDSSKSKAPKSPEVIEID
notes: Ufd1 of Saccharomyces cerevisiae (yUfd1), full length; codon-optimized synthetic cDNA; removal of GST by HRV3C is surmised; also called untagged Ufd1; source: E. coli Rosetta (DE3) (pGEX-6P1), purified
binds: all assays above
